This is an account of results in patent publication US20160215041A1.

Bounds are passed on as bounds.

The term EC50 (read off the curve) denotes the concentration at which the effect is half-maximal.

Experiment [1] has as its target Anti-P. aeruginosa O6ad scFv, c-myc- and 6× His-tagged (human). Briefly: ELISA: anti-O6ad scFv coated, two-fold dilutions of anti-tag IgG, goat anti-mouse IgG-HRP. (In general: An ELISA detects its analyte on a solid surface through an enzyme-linked reagent.)
Experiment [2] shares this target. Briefly: cell-based or functional assay.
Experiment [3] has as its target Anti-P. aeruginosa O6ad Fab, c-myc- and 6× His-tagged (human). Briefly: cell-based or functional assay.
Experiment [4] shares this target. Briefly: ELISA: anti-O6ad Fab coated, two-fold dilutions of anti-tag IgG, goat anti-mouse IgG-HRP.
The target in experiment [5] is Anti-P. aeruginosa O6ad scFv, c-myc- and 6× His-tagged (human). As to the kind of experiment: ELISA, rAb coated, anti-tag IgG titrated (FIG. 7).
The target of experiment [6] is Anti-P. aeruginosa O6ad Fab, c-myc- and 6× His-tagged (human). Briefly: ELISA, rAb coated, anti-tag IgG titrated (FIG. 7).
Experiment [7] addresses Human complement C1q (human) (UniProt P02745). As to the kind of experiment: C1q deposition ELISA, anti-tag IgG alone at 66.67 nM.
Chain of UniProt P02745 (P02745 23-245 limits assumed, chain 1 of 3): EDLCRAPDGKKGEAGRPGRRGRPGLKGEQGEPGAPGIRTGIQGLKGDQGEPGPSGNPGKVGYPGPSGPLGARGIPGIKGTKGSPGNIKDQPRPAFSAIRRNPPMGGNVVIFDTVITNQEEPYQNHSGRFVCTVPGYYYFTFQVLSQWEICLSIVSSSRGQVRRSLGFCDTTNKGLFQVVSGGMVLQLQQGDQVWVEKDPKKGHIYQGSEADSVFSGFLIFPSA
Chain of UniProt P02745 (P02746 28-253 limits assumed, chain 2 of 3, further chain): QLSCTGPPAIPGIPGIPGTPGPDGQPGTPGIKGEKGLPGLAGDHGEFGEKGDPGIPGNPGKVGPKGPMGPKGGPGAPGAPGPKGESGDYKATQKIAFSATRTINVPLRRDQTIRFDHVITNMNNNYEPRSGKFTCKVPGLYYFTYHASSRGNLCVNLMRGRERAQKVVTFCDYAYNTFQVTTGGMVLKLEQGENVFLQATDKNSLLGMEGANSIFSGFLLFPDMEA
Chain of UniProt P02745 (P02747 29-245 limits assumed, chain 3 of 3, further chain): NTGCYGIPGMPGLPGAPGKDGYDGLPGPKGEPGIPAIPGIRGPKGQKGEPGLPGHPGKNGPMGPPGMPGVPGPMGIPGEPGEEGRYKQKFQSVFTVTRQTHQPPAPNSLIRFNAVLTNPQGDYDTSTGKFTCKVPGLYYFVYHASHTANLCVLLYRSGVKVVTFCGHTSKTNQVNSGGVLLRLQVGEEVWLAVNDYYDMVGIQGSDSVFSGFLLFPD

Turning to “Anti-Penta-His IgG1 murine mAb (QIAgen) (antibody)”, the EC50 (read off the curve) in experiment [1] came to 1 nM. In experiment [2], this substance gave a % phagocytosed bacteria (P. aeruginosa O6ad, J774.1A) of 42%; a fold increase of bacterial uptake over the control without antibodies, at 13.09 nM anti-tag IgG of 10.6 fold; a fold phagocytosis relative to scFv-9E10 of 2 fold. Also, in experiment [3], the % phagocytosed bacteria (P. aeruginosa O6ad, J774.1A) was 27%; the fold increase of bacterial uptake over the control without antibodies, at 13.09 nM anti-tag IgG worked out at 3.5 fold; the fold phagocytosis relative to Fab-9E10 is greater than 1.2 fold. Also, the EC50 (read off the curve) in experiment [4] stood at 1 nM. The substance further had a fold binding relative to 9E10 in experiment [5] of less than 10 fold. In experiment [6], the fold binding relative to 9E10 is less than 10 fold.

Consider “Murine mAb 9E10 (anti-c-myc IgG1) from hybridoma 1-9E10.2 (ATCC CRL-1729) (antibody)”, for which the fold C1q deposition relative to Penta-His in experiment [7] stood at 1.4 fold. In experiment [2], this substance registered a % phagocytosed bacteria (P. aeruginosa O6ad, J774.1A) of 24.8% and a fold increase of bacterial uptake over the control without antibodies, at 13.09 nM anti-tag IgG of 4.6 fold. Also, in experiment [3], the % phagocytosed bacteria (P. aeruginosa O6ad, J774.1A) was 18.8% and the fold increase of bacterial uptake over the control without antibodies, at 13.09 nM anti-tag IgG came out at 3.5 fold.
